According to CN113912710A (SURE BIOTECH HANGZHOU LTD, dated 2022):

Legend:
[1] = target: T1, SARS-CoV Nucleocapsid Protein(His Tag), 货号40143-V08B (SARS-CoV, UniProt P59595 1-422); assay: ELISA, cross-reaction test
T1 construct: also called SARS病毒的N蛋白; SARS-CoV-NP

[2] = target: T2, MERS-CoV Nucleocapsid Protein(His Tag), 货号40068-V08B (MERS-CoV, UniProt K9N4V7 1-411); assay: ELISA, cross-reaction test
T2 construct: also called MERS病毒的N蛋白; MERS-CoV-NP

B1: 单克隆抗体Mouse anti-SARS-COV-2 Mab4(NP-Ab) (antibody, V domains shown)
VH: VKLQESGPELKKPGETVRISCKASGYTLTDYSIHWVKQAPGKGLKWMGWINTETVEPTYTDDFKGRFAFSLETSASTAYLQINNLKNEDTATYFCASTGTEFDYWGQGTTLTVSS
VL: DVVMTQTPLSLPVSLGDQASISCRSSQSLVHITGNTYLHWYLQKPGQSPKLLIYKVSNRFSGVPDRFSGSGSGTDFTLKISRVEAEDLGVYFCSQSTHVPLTFGAGTKLELK
notes: also called A1-1; A1-1号抗体
Does B1 bind [1]?
Result: no binding

Does B1 bind [2]?
Result: no binding
